Experiments:
[1] = molecular target: SARS-CoV RBD (residues 306-527), C-terminal his-tag (SARS-CoV (GenBank NC_004718.3, Tor2), UniProt P59594); assay: SPR; details: both partners purified
[2] = molecular target: SARS-CoV-2 RBD (residues 319-541), C-terminal his-tag (SARS-CoV-2, Wuhan-Hu-1 (MN908947.3), UniProt P0DTC2); assay: SPR; details: both partners purified

B1: P17 antibody (full-length IgG1) (antibody, V domains shown)
VH: QQLVESGGGVVQPGRSLRLSCAASGFTFSSYAMHWVRQAPGKGLEWVAVISYDGSNKYYADSVKGRFTISRDNSKNTLYLQMNSLRAEDTAVYYCARHATLMNNKDIWGQGTLVTVSS
VL: not shown
notes: also called NAb P17
Q: Does B1 bind [1]?
A: no binding

Q: And the Kd [2]?
A: 96 pM

— publication PMC7705443 (Cell Research, 2020)
